The numbers were not newly measured in paper PMC7088015, which cites them from elsewhere.

Like-named read-outs stand apart in the source and are kept apart here.

What all share (conditions): free dipeptide in solution (not further stated)
The subject of one data set is Cterm.
The subject of data set [1] is Nterm.
Data set [2] concerns Cterm (position 1, -----H-----). As to the kind of experiment: not stated.
In data set [3] the test system is His2 (position 1, -----H-----). As to the kind of experiment: not stated.
Data set [4] has as its system Nterm. As to the kind of experiment: not stated.

As to “Anserine (beta-alanyl-1-methyl-L-histidine) (natural dipeptide of skeletal muscle of birds, fish and cattle (first identified in goose muscle); source of the titrated material not stated)”, the pKa (as a rule, the pH at which an ionisable group is half protonated) is 2.64 with Cterm and 9.49 in the data set on Nterm [1].
For the substance “Carnosine (beta-alanyl-L-histidine) (natural dipeptide of vertebrate skeletal muscle (discovered in cattle, Bos taurus); source of the titrated material not stated)”, the pKa is listed as 2.77 in data set [2], 6.83 in data set [3] and 9.66 in the data set on Nterm [4].
